Experimental data as given in US20210101937A1 (Bicycle, published 2021).
*1 amine or outer side, *2 acyl side, *3 side chain or, on linkers, in order; H or OH if unused. Bridges are numbered along the chain shown (N, C = ends). Roman numbers before positions name the chains, in order. Where no end group is shown, it is not given here. [ ]: non-standard residue; d: D form. The star is where a group is joined. TATA = O=C(CC[*:1])N1CN(C(=O)CC[*:2])CN(C(=O)CC[*:3])C1; 1Nal = N[C@@H](Cc1cccc2ccccc12)C(=O)O; Hyp = O=C(O)[C@@H]1C[C@@H](O)CN1; hArg = N=C(N)NCCCC[C@H](N)C(=O)O; tBuAla = CC(C)(C)C[C@H](N)C(=O)O; NMeA = CN[C@@H](C)C(=O)O; Nle = CCCC[C@H](N)C(=O)O; Pent4ynoyl = C#CCCC(=O)*; dNMeA = CN[C@H](C)C(=O)O; βAla = NCCC(=O)O

B1: BCY12583 (peptide)
peptide 1: CP[1Nal][dE]CL[hArg]DWSTP[Hyp]WC
peptide 2: Ac-C[tBuAla]PE[dK](Pent4ynoyl)PYCFADPY[Nle]CA
modifications: linker I:1-I:5-I:15, II:1-II:8-II:15 via TATA; not fully specified (bridges); printed as CP[1Nal][dE]CL[HArg]DWSTP[HyP]WC / Ac-C[tBuAla]PE[D-Lys(PYA)]PYCFADPY[Nle]CA; also: chain 1 N-terminus joined to chain 2 dLys(PYA) by Peg5 linker (heterotandem complex)
B2: BCY12585 (peptide)
peptide 1: CP[1Nal][dE]CM[hArg]EWSTP[Hyp]WC
peptide 2: Ac-C[tBuAla]PE[dK](Pent4ynoyl)PYCFADPY[Nle]CA
modifications: linker I:1-I:5-I:15, II:1-II:8-II:15 via TATA; not fully specified (bridges); printed as CP[1Nal][dE]CM[HArg]EWSTP[HyP]WC / Ac-C[tBuAla]PE[D-Lys(PYA)]PYCFADPY[Nle]CA; also: chain 1 N-terminus joined to chain 2 dLys(PYA) by Peg5 linker (heterotandem complex)
B3: BCY12709 (peptide)
peptide 1: CP[1Nal][dD]CM[hArg]DWSTP[Hyp]WC
peptide 2: Ac-C[tBuAla]PE[dK](Pent4ynoyl)PYCFAD[NMeA]Y[Nle]C
modifications: linker I:1-I:5-I:15, II:1-II:8-II:15 via TATA; not fully specified (bridges); also: chain 1 N-terminus joined to chain 2 dLys(PYA) by Peg5 linker (heterotandem complex)
B4: BCY12710 (peptide)
peptide 1: CP[1Nal][dD]CM[hArg]DWSTP[Hyp]WC
peptide 2: Ac-C[tBuAla]PE[dK](Pent4ynoyl)PYCFAD[dNMeA]Y[Nle]C
modifications: linker I:1-I:5-I:15, II:1-II:8-II:15 via TATA; not fully specified (bridges); also: chain 1 N-terminus joined to chain 2 dLys(PYA) by Peg5 linker (heterotandem complex)
B5: BCY11618 (peptide)
peptide 1: Pent4ynoyl-[βAla]CP[1Nal][dK]CM[hArg]DWSTP[Hyp]WC
peptide 2: Ac-C[tBuAla]PE[dK]PYCFADPY[Nle]CA
modifications: linker I:2-I:6-I:16, II:1-II:8-II:15 via TATA; linker II:N-II:5 via Peg5; not fully specified (some residues); also: palmitic acid on dK of chain 1
B6: BCY11776 (peptide)
peptide 1: CPXDCMXDWSTPXWC
peptide 2: CXPEKPYCFADPYXCX
modifications: not fully specified; [Ac]C[tBuAla]PE[dK]PYCFADPY[Nle]C[Dap(PYA)]; dK carries palmitic acid (Example 5); Cys residues bonded to TATA scaffold; CP[1Nal][dD]CM[HArg]DWSTP[HyP]WC; Cys residues bonded to TATA scaffold
B7: BCY11860 (peptide)
peptide 1: Pent4ynoyl-[βAla]CP[1Nal][dK]CM[hArg]DWSTP[Hyp]WC
peptide 2: Ac-C[tBuAla]PE[dK]PYCFADPY[Nle]CA
modifications: linker I:2-I:6-I:16, II:1-II:8-II:15 via TATA; linker II:N-II:5 via Peg5; also: two bicycles joined by Peg5 linker, further acylated with a reagent shown only in a drawing
B8: BCY12020 (peptide)
peptide 1: XCPXDCMXDWSTPXWC
peptide 2: CXPEKPYCFADPYXCX
modifications: [Ac]C[tBuAla]PE[dK]PYCFADPY[Nle]C[Dap(PYA)]; carries Palmitic acid-PEG10 (Example 7); Cys residues bonded to TATA scaffold; [PYA][B-Ala]CP[1Nal][dD]CM[HArg]DWSTP[HyP]WC; Cys residues bonded to TATA scaffold
B9: BCY12661 (peptide)
peptide 1: XPXDCMXDWSTPXWC
peptide 2: CXEEKPYCFADPYXCX
modifications: [Ac]C[tBuAla]EE(dK)PYCFADPY[Nle]C[Dap(PYA)]; carries the palmitic acid azide of Example 8 (palmitic acid, γGlu, Lys(N3)); Cys residues bonded to TATA scaffold; [PYA]CP[1Nal][dD]CM[HArg]DWSTP[HyP]WC; Cys residues bonded to TATA scaffold
B10: BCY12377 (peptide)
peptide 1: CPXDCMXDWSTPXWC
peptide 2: CXEEKPYCFADPYXC
modifications: [Ac]C[tBuAla]EE[dK(PYA)]PYCFADPY[Nle]C; Cys residues bonded to TATA scaffold; CP[1Nal][dD]CM[HArg]DWSTP[HyP]WC; Cys residues bonded to TATA scaffold
B11: BCY12233 (peptide)
peptide 1: Pent4ynoyl-A[hArg]DC[Hyp]LVNPLCLHP[dD]W[hArg]C
peptide 2: Ac-C[tBuAla]PE[dK]PYCFADPY[Nle]CA
modifications: linker I:4-I:11-I:18, II:1-II:8-II:15 via TATA; linker II:N-II:5 via Peg5; also: two bicycles joined by Peg5 linker
B12: BCY12234 (peptide)
peptide 1: AXDCXLVNPLCLHPDWXCK
peptide 2: CXPEKPYCFADPYXCA
modifications: Ac-C[tBuAla]PE[D-Lys]PYCFADPY[Nle]CA; Cys residues bonded to TATA scaffold; [Ac]A[HArg]DC[HyP]LVNPLCLHP[dD]W[HArg]CK(PYA); Cys residues bonded to TATA scaffold
B13: BCY12235 (peptide)
peptide 1: AXDCXLVNPLCLKPDWXC
peptide 2: CXPEKPYCFADPYXCA
modifications: Ac-C[tBuAla]PE[D-Lys]PYCFADPY[Nle]CA; Cys residues bonded to TATA scaffold; [Ac]A[HArg]DC[HyP]LVNPLCLK(PYA)P[dD]W[HArg]C; Cys residues bonded to TATA scaffold
B14: BCY12236 (peptide)
peptide 1: AXDCXKVNPLCLHPDWXC
peptide 2: CXPEKPYCFADPYXCA
modifications: Ac-C[tBuAla]PE[D-Lys]PYCFADPY[Nle]CA; Cys residues bonded to TATA scaffold; [Ac]A[HArg]DC[HyP]K(PYA)VNPLCLHP[dD]W[HArg]C; Cys residues bonded to TATA scaffold
B15: BCY12237 (peptide)
peptide 1: AXDCXLVNPLCKHPDWXC
peptide 2: CXPEKPYCFADPYXCA
modifications: Ac-C[tBuAla]PE[D-Lys]PYCFADPY[Nle]CA; Cys residues bonded to TATA scaffold; [Ac]A[HArg]DC[HyP]LVNPLCK(PYA)HP[dD]W[HArg]C; Cys residues bonded to TATA scaffold
B16: BCY12229 (peptide)
peptide 1: DXCSAGWLTMCQKLHLCPSH
peptide 2: CXPEXPYCFADPYXCA
modifications: Ac-C[tBuAla]PE[D-Lys(PYA)]PYCFADPY[Nle]CA; Cys residues bonded to TATA scaffold; [Ac]D[HArg]CSAGWLTMCQKLHLCPSH; Cys residues bonded to TATA scaffold
B17: BCY12230 (peptide)
peptide 1: DXCSKGWLTMCQKLHLCPSH
peptide 2: CXPEXPYCFADPYXCA
modifications: Ac-C[tBuAla]PE[D-Lys(PYA)]PYCFADPY[Nle]CA; Cys residues bonded to TATA scaffold; [Ac]D[HArg]CSKGWLTMCQK(Ac)LHLCPSH; Cys residues bonded to TATA scaffold
B18: BCY12242 (peptide)
peptide 1: DXCSAGWLTMCQKLKLCPSH
peptide 2: CXPEXPYCFADPYXCA
modifications: Ac-C[tBuAla]PE[D-Lys(PYA)]PYCFADPY[Nle]CA; Cys residues bonded to TATA scaffold; [Ac]D[HArg]CSAGWLTMCQK(Ac)LKLCPSH; Cys residues bonded to TATA scaffold
B19: BCY12375 (peptide)
peptide 1: SDKCSAGWLTMCQKLHLCPSH
peptide 2: CXEEKPYCFADPYXCX
modifications: [Ac]C[tBuAla]EE(dK)PYCFADPY[Nle]C[Dap(PYA)]; carries Palmitic acid-PEG10 (Example 1); Cys residues bonded to TATA scaffold; Ac-SDKCSAGWLTMCQK[PYA]LHLCPSH; Cys residues bonded to TATA scaffold
B20: BCY12379 (peptide)
peptide 1: CPXDCMXDWSTPXWC
peptide 2: CXPEKPYCFADPYXC
modifications: [Ac]C[tBuAla]PE[dK(PYA)]PYCFADPY[Nle]C; Cys residues bonded to TATA scaffold; CP[1Nal][dD]CM[HArg]DWSTP[HyP]WC; Cys residues bonded to TATA scaffold

How the values were obtained:
Test in all cases: cell-based or functional assay
[1] = target: T1, CD137 (UniProt Q07011 24-255, limits assumed)
T1 sequence (Q07011 24-255 limits assumed): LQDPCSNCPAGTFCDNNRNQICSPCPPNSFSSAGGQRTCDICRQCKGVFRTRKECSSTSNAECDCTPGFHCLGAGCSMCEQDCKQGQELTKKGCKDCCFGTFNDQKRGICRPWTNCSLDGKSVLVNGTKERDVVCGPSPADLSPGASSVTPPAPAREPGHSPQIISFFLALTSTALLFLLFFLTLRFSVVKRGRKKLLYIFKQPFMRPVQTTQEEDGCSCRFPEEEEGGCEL

[2] = target: T1, CD137; remark: listed apart in the source
[3] = target: T1, CD137; remark: listed apart in the source

Row | Binder | Fold improvement in EC50 over BCY10000 on same plate [1] | Fold improvement in Emax over BCY10000 on same plate [1] | further results
1 | B1 | 0.6 fold | 1.47 fold | 
2 | B2 | 1.31 fold | 1.5 fold | 
3 | B3 | 0.08 fold | 2.15 fold | 
4 | B4 | 0.16 fold | 1.41 fold | 
5 | B5 | 0.09 fold | 2.59 fold | 
6 | B6 | 0.05 fold | 0.07 fold | 
7 | B7 | 0.29 fold | 1.53 fold | 
8 | B8 | 0.15 fold | 0.48 fold | 
9 | B9 | 0.34 fold | 0.5 fold | 
10 | B10 | 0.78 fold | 1.37 fold | 
11 | B11 |  |  | Fold improvement in EC50 over BCY9173 on same plate [2]: 1 fold; Fold improvement in Emax over BCY9173 on same plate [2]: 0.9 fold
12 | B12 |  |  | Fold improvement in EC50 over BCY9173 on same plate [2]: 1 fold; Fold improvement in Emax over BCY9173 on same plate [2]: 0.8 fold
13 | B13 |  |  | Fold improvement in EC50 over BCY9173 on same plate [2]: 1.1 fold; Fold improvement in Emax over BCY9173 on same plate [2]: 0.8 fold
14 | B14 |  |  | Fold improvement in EC50 over BCY9173 on same plate [2]: 1.4 fold; Fold improvement in Emax over BCY9173 on same plate [2]: 0.8 fold
15 | B15 |  |  | Fold improvement in EC50 over BCY9173 on same plate [2]: 1 fold; Fold improvement in Emax over BCY9173 on same plate [2]: 0.8 fold
16 | B16 |  |  | EC50 [3]: 18 nM; Fold Induction over background [3]: 8 fold over background
17 | B17 |  |  | EC50 [3]: 46 nM; Fold Induction over background [3]: 10 fold over background
18 | B18 |  |  | EC50 [3]: 20 nM; Fold Induction over background [3]: 13 fold over background
19 | B19 |  |  | EC50 [3]: 22 nM; Fold Induction over background [3]: 3 fold over background
20 | B20 | 0.91 fold | 1.29 fold | 
